Assay results as given in US5583112A, “Saponin-antigen conjugates and the use thereof” (priority 1992, dated 1996).

Columns and labels:
anti-lysozyme IgG = experiment: Immunization of mice with QA-21-lysozyme conjugate (total anti-lysozyme IgG); assay type: in vivo, C57bl/6 mice; conditions: days 0 and 14 intradermal; bled day 21
Procedure: The QA-21-lysozyme from Example 18 conjugate was used to immunize mice (C57bl/6), with and without added QA-21 as adjuvant. Ten nice (9 weeks of age at the beginning of the immunization) were immunized per group. Immunizations were made intradermally at day 0 and day 14 with a total volume of 0.2 ml (PBS buffer, pH 7). The vaccines contained the following dosages of antigen and adjuvant:
The mice were bled on day 21 and the anti-lysozyme IgG titers were determined. Microtitre plates (in the alternative, Co-bind® plates from Micromembranes may be used) were incubated at 4° C. overnight with 10 μg/ml of lysozyme in about 100 μl of PBS. The plates were then washed two times with PBS and blocked for one hour with 150 μl/well of 10% normal goat serum at room temperature. The plates were then washed two times with 0.05% Tween-20 in water.
The mice sera were incubated with the lysozyme coated plates as follows. The individual serum samples (10μl) diluted with 10% normal goat serum in PBS to make 100 μl, as well as serial dilutions thereof (1:10) were added to the wells and incubated for 1 hour at room temperature. The wells were then washed four times with 0.05% Tween-20. […] The conjugate was then detected by tetramethylbenzidine substrate (Bos, E.S. et al., J. Immunoassay 2:187 (1981)). After incubation, the OD450 was read. […]

[1] = test system: anti-lysozyme antibodies (IgG1, IgG2B, IgG2A, IgM, IgG3); experiment: Isotyping of anti-lysozyme antibodies; assay type: in vivo, C57bl/6 mice; conditions: FIG. 22
Procedure: Next, the anti-lysozyme antibodies produced by each group of mice were isotyped. Microtitre plates were incubated at 4° C. overnight with 10 μg/ml of lysozyme in about 100 μl of PBS. The plates were then washed two times with PBS and blocked for one hour with 150 μl/well of 10% normal goat serum in PBS at room temperature. The plates were then washed two times with 0.05% Tween-20 in water.
The mice sera were incubated with the lysozyme coated plates as follows. The serum samples were tested in separate lanes for IgG1, IgG2B, IgG2A, IgM and IgG3. The individual serum samples (10 μl) were diluted with 10% normal goat serum in PBS to make 100 μl, and serial dilutions thereof (1:10) were added to the wells and incubated for 1 hour at room temperature. The wells were then washed four times with 0.05% Tween-20. […] The conjugates were then detected by adding 100 μl per well of 1 mg/ml p-nitrophenylphosphate in 0.1M borate, pH 9.0. After incubation for 6 and 24 hours at room temperature, tile OD410 was read.

Substance | Anti-lysozyme antibody response (immunogenicity) (anti-lysozyme IgG) | Antibody isotypes produced [1]
lysozyme-QA-21 conjugate: QA-21 coupled via glucuronic acid to lysozyme, 1:1 molar ratio | higher antibody titer than either of the groups receiving free QA-21 | 
lysozyme: a poorly immunogenic, very hydrophilic protein | poorly immunogenic | only IgM antibodies were produced
